One protein from patent US20100291189A1 (RIKEN, published 2010) can be followed below.

The data set concerns the molecule itself. Kind of data set: SDS-PAGE/CBB staining of sucrose gradient liposome fractions; self-association (homo-tetramer).

B1: E. coli-derived water channel (AQPZ), full-length, with N-terminal native His tag and TEV protease recognition site, cell-free synthesized (other)
chain: MKDHLIHNVHKEEHAHAHNKDYDIPTTENLYFQGSSGSSGMFRKLAAECFGTFWLVFGGCGSAVLAAGFPELGIGFAGVALAFGLTVLTMAFAVGHISGGHFNPAVTIGLWAGGRFPAKEVVGYVIAQVVGGIVAAALLYLIASGKTGFDAAASGFASNGYGEHSPGGYSMLSALVVELVLSAGFLLVIHGATDKFAPAGFAPIAIGLALTLIHLISIPVTNTSVNPARSTAVAIFQGGWALEQLWFFWVVPIVGGIIGGLIYRTLLEKRD
notes: No cleavage of the tag by TEV is reported before the gels; Purified in DDM for Blue-Native PAGE, and in a phosphatidylcholine liposome fraction for SDS-PAGE; also called cell-free synthesized AQPZ
As for B1, the binding result is reported as “binds”.
